Where “and” joins values, the source holds several entries; their conditions need not be identical. Identical values can stand only once.
Target: T1, agarose-immobilized hNE beads (Homo sapiens, UniProt P08246)
T1 sequence (P08246 30-267): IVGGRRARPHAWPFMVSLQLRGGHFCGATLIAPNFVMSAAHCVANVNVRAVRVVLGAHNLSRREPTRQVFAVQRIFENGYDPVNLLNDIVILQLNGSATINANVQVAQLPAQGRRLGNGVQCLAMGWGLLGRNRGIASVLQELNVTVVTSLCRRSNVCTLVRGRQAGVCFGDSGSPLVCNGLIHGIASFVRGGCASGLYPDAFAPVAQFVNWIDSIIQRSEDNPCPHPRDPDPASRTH
Experiment: pH fractionation of display phage on agarose-immobilized hNE beads
Type: binding
Parameters: Fraction of Input recovered at pH7.0: scale not given here
Conditions: for Recovery Total: total fraction of input; for fraction of input: abbreviated fractionation
Text: For the purpose of simultaneously assessing the affinity of a large number of different BPTI and ITI-D1 muteins, DNA sequences encoding the BPTI or ITI-D1 was incorporated into the genome of the bacteriophage M13. […] Alterations in the KuDom amino acid sequence were introduced. Each pure population of phage displaying a particular KuDom was characterized with regard to its interactions with immobilized hNE or hCG. Based on comparison to the pH elution profiles of phage displaying other KuDoms of known affinities for the particular protease, mutant KuDoms having high affinity for the target proteases were identified. Subsequently, the sequences of these mutant KuDoms were determined (typically by sequencing the corresponding DNA sequence).
To test if phage displaying the ITI-D1::III fusion protein interact strongly with the proteases human neutrophil elastase (hNE), aliquots of display phage were incubated with agarose-immobilized hNE beads (“hNE beads”). The beads were washed and bound phage eluted by pH fractionation as described in U.S. Pat. No. 5,223,409. The pHs used in the step gradient were 7.0, 6.0, 5.5, 5.0, 4.5, 4.0, 3.5, 3.0, 2.5, and 2.0. Following elution and neutralization, the various input, wash, and pH elution fractions were titered. Phage displaying ITI-D1 were compared to phage that display EpiNE-7.
To test if ITI-D1E7-display phage bind hNE beads, pH elution profiles were measured. Aliquots of EpiNE-7, MA-ITI-D1, and MA-ITI-D1E7 display phage were incubated with hNE beads for three hours at room temperature (RT). The beads were washed and phage were eluted as described in U.S. Pat. No. 5,223,409, except that only three pH elutions were performed. […] The pH elution profile of EpiNE-7 display phage is as described. MA-ITI-D1E7 phage show a broad elution maximum around pH 5. The total fraction of MA-ITI-D1E7 phage obtained on pH elution from hNE beads was about 40-fold less than that obtained using EpiNE-7 display phage.
We characterized the binding properties to hNE-beads of MA-BITI and MA-BITI-E7 display phage using the extended pH fractionation procedure described in U.S. Pat. No. 5,223,409.
The binding capacity of hNE-beads for display phage varies among preparations of beads and with age for each individual preparation of beads. Thus, it is difficult to directly compare absolute yields of phage from elutions performed at different times. For example, the fraction of MA-EpiNE7 display phage recovered from hNE-beads varies two-fold among the experiments shown in Tables 14, 16, and 17. However, the shapes of the pH elution profiles are similar. It is possible to correct somewhat for variations in binding capacity of hNE-beads by normalizing display phage yields to the total yield of MA-EpiNE7 phage recovered from the beads in a concurrent elution. When the data shown in Tables 14, 16, and 17 are so normalized, the recoveries of display phage, relative to recovered MA-EpiNE7, are shown in Table 3.
ITI-D1 derivative BITI-E7-1222 is BITI-E7 with the alteration A11T. ITI-D1 derivative BITI-E7-141 is BITI-E7 with the alterations E31Q and Q34V; phage that display the presence of these proteins are MA-BITI-E7-1222 and MA-BITI-E7-141. We determined the binding properties to hNE-beads of MA-BITI-E7-1222 and MA-BITI-E7-141 display phage using the extended pH fractionation protocol described previously. The results are in Tables 18 (for MA-BITI-E7 and MA-BITI-E7-1222) and 19 (for MA-EpiNE7 and MA-BITI-E7-141). The pH elution profiles for the MA-BITI-E7 and MA-BITI-E7-1222 phage are almost identical.
Total pfu applied to the beads are in column two. The fractions of this input pfu recovered in each pH fraction of the abbreviated pH elution protocol (pH 7.0, pH 3.5, and pH 2.0) are in the next three columns. […]

[1] = EE extended pH elution protocol
[2] = EE, sum of pH 3.0, 2.5, 2.0 samples
[3] = EE, sum of pH 6.0 to pH 3.5 samples
[4] = SUM of all pH elution fractions
[5] = extended protocol, final TBS-TWEEN wash
[6] = extended protocol, pH 3.0 fraction
[7] = extended protocol, pH 4.0 fraction
[8] = extended protocol, pH 4.5 fraction
[9] = extended protocol, pH 5.0 fraction
[10] = extended protocol, pH 5.5 fraction
[11] = extended protocol, pH 7.0 fraction
[12] = AE abbreviated pH elution protocol

EpiNE7: BPTI-derived Kunitz domain, SEQ ID NO 009; in Tables 14-16 the phage displaying it
fold greater affinity for hNE than ITI-D1E7: roughly 1000 fold | Fraction of Input recovered at pH7.0 [1]: 0.44 | Fraction of Input recovered at pH2.0 [2]: 2.2 ×10^−4 | Fraction of Input recovered at pH3.5 [3]: 6.4 ×10^−4 | Recovery Total (EE): 9.0 ×10^−4 | pfu [4]: 6.4 · 10^6 pfu and 7.6 · 10^6 pfu | pfu/INPUT (fraction of input) [4]: 3 · 10^−3 and 4.1 · 10^−3 | fraction of input [4]: 4.3 · 10^−3 | fraction of input (Wash): 6 · 10^−5 | fraction of input (pH 2.0): 1 · 10^−3 | fraction of input (pH 3.5): 3 · 10^−3 | fraction of input (pH 7.0): 3 · 10^−4 | total fraction of input phage eluted from hNE beads (all pH elution fractions): About 0.3% | pH Elution Maximum (display phage on hNE beads): ~4.0 pH | pfu [5]: 3.8 · 10^5 pfu | pfu/INPUT (fraction of input) [5]: 1.2 · 10^−4 | pfu (extended protocol, pH 2.0 fraction): 3.0 · 10^5 pfu and 2.9 · 10^5 pfu | pfu (extended protocol, pH 2.5 fraction): 1.6 · 10^5 pfu and 2.8 · 10^5 pfu | pfu [6]: 6.6 · 10^5 pfu and 3.8 · 10^5 pfu | pfu/INPUT (fraction of input) [6]: 2.0 · 10^−4 and 2.1 · 10^−4 | pfu [7]: 1.6 · 10^6 pfu and 1.7 · 10^6 pfu | pfu/INPUT (fraction of input) [7]: 4.8 · 10^−4 and 9.4 · 10^−4 | pfu [8]: 1.2 · 10^6 pfu and 1.1 · 10^6 pfu | pfu/INPUT (fraction of input) [8]: 3.5 · 10^−4 and 6.1 · 10^−4 | pfu [9]: 9.5 · 10^5 pfu and 8.4 · 10^5 pfu | pfu/INPUT (fraction of input) [9]: 2.9 · 10^−4 and 4.7 · 10^−4 | pfu [10]: 9.4 · 10^5 pfu and 7.8 · 10^5 pfu | pfu/INPUT (fraction of input) [10]: 2.8 · 10^−4 and 4.3 · 10^−4 | pfu/INPUT (fraction of input) (extended protocol, pH 6.0 fraction): 4.1 · 10^−4 and 3.6 · 10^−4 | pfu [11]: 6.2 · 10^5 pfu and 5.2 · 10^5 pfu | pfu/INPUT (fraction of input) [11]: 1.8 · 10^−4 and 2.9 · 10^−4

BITI-E7: ITI-D1E7 with K1R, E2P and S4F; SEQ ID NO 142 (RPDFCQLGYSAGPCVAMFPRYFYNGTSMACETFQYGGCMGNGNNFVTEKDCLQTCRGA; BITI-E7)
fold greater affinity for hNE than ITI-D1E7: ten-fold

BITI-E7-1222: BITI-E7 with the alteration A11T; SEQ ID NO 143 (RPDFCQLGYSTGPCVAMFPRYFYNGTSMACETFQYGGCMGNGNNFVTEKDCLQTCRGA; BITI-E7-1222)
Fraction of Input recovered at pH7.0 [1]: 0.72 | Fraction of Input recovered at pH2.0 [2]: 0.64 ×10^−4 | Fraction of Input recovered at pH3.5 [3]: 4.0 ×10^−4 | Recovery Total (EE): 5.4 ×10^−4

AMINO2: ITI-D1 derivative carrying K1-S4, SEQ ID NO 023 (KPDSCQLGYSAGPCVAMFPRYFYNGTSMACETFQYGGCMGNGNNFVTEKDCLQTCRGA; AMINO2)
Fraction of Input recovered at pH2.0 [12]: 0.45 ×10^−4 | Fraction of Input recovered at pH3.5 [12]: 2.1 ×10^−4 | Fraction of Input recovered at pH7.0 [12]: 0.57 | Recovery Total (AE): 3.1 ×10^−4 | reduction of display phage binding to hNE-beads (relative to parental MA-BITI-E7-141): at least ten fold
